Measurements taken from patent US20060140858A1, “Drug pre-targeting by means of bi-specific antibodies and hapten constructs comprising a carrier peptide and the active agent(s)” (Immunomedics, Inc., priority 2002, published 2006).
Marks after values point to notes of the source that are not given here.

Test: In-vitro stability of In/In-111 IMP 224, reverse phase HPLC
Format: physicochemical
Method: Aliquots (0.15 mL, 370 μCi) were withdrawn and mixed with 0.9 mL 0.5 M citrate buffer pH 4.0, 0.9mL 0.5 M citrate buffer pH 5.0, and 0.9 mL 0.5 M phosphate buffer pH 7.5. The stability of the labeled peptide was followed by reverse phase HPLC. HPLC Conditions: Waters Radial-Pak C-18 Nova-Pak 8×100 mm, Flow Rate 3 mL/min, Gradient: 100% A=0.3.% NH4OAc to 100% B=90% CH3CN, 0.3% NH4OAc over 10 min.

## COc1cccc2c1C(=O)c1c(O)c3c(c(O)c1C2=O)C[C@@](O)(C(CO)=NNc1ccc(C(=O)N[C@@H](CCCCNC(=O)CN(CCN(CCN(CC(=O)O)CC(=O)O)CC(=O)O)CC(=O)O)C(=O)N[C@@H](Cc2ccc(O)cc2)C(=O)N[C@@H](CCCCNC(=O)CN(CCN(CCN(CC(=O)O)CC(=O)O)CC(=O)O)CC(=O)O)C(N)=O)cc1)C[C@@H]3O[C@H]1C[C@H](N)[C@H](O)[C@H](C)O1 [IMP 224, Dox = N—NH—C6H4—CO-Lys(DTPA)-Tyr-Lys(DTPA)-NH2]
Kit, time cell empty (first line)
  Intact Peptide: 00
Kit, time printed '1 hr'
  Intact Peptide: 9
pH 4.0, time printed '4 min'
  Intact Peptide: 00
pH 4.0, time printed '9 hr'
  Intact Peptide: 5
pH 4.0, time printed 'hr', some peptide decomposed but not included in peak areas
  Intact Peptide: 00*
pH 5.0, time printed '0 min'
  Intact Peptide: 00
pH 5.0, time printed '0 hr'
  Intact Peptide: 1
pH 5.0, time printed 'hr', some peptide decomposed but not included in peak areas
  Intact Peptide: 00*
pH 7.5, time printed '0 hr'
  Intact Peptide: 0
pH 7.5, time printed '.5 hr' (first line)
  Intact Peptide: 00
pH 7.5, time printed '.5 hr' (second line)
  Intact Peptide: 4
